In paper PMC5973687 (mAbs, 2018):

T1: DcR3-Fc (UniProt O95407 30-300)
T1 sequence (looked up): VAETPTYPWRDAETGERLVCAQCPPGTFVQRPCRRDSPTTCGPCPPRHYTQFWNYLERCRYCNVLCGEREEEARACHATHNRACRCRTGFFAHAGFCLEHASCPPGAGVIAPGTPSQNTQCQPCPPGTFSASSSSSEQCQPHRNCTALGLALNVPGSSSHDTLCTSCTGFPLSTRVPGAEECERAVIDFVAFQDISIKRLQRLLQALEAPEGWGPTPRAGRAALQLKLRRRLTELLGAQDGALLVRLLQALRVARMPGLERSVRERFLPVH


Assays:
[1] = biological target: DR3-Fc (UniProt Q93038); assay: ELISA
[2] = biological target: T1, DcR3-Fc; assay: ELISA

Chain of DR3-Fc (Q93038 25-199): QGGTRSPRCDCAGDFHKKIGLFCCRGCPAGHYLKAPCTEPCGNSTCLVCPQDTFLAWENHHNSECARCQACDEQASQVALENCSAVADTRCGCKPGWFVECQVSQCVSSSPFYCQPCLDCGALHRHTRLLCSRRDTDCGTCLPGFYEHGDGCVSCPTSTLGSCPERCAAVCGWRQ

Row | decrease in binding against wild-type TL1A [1] | binding result [2] | Molecule
1 | 50% | – | TL1A-R32A (ligand)
2 | – | binds | human TL1A (extracellular domain, recombinant) (ligand, UniProt O95150 57-251, looked up, biotin (single-site biotinylated, site not stated) in the competition ELISA) SQLRAQGEACVQFQALKGQEFAPSHQQVYAPLRADGDKPRAHLTVVRQTPTQHFKNQFPALHWEHELGLAFTKNRMNYTNKFLLIPESGDYFIYSQVTFRGMTSECSEIRQAGRPNKPDSITVVITKVTDSYPEPTQLLMGTKSVCEVGSNWFQPIYLGAMFSLQEGDKLMVNVSDISLVDYTKEDKTFFGAFLL
